Source: patent US20260055398A1, “IMPROVED POLYMER DEGRADING ENZYMES” (CAMBRIDGE ENTERPRISE LIMITED, priority 2022, published 2026)

Columns and labels:
[1] = Enzymatic degradation of PET (nanoparticles, film), HPLC of released TPA and MHET; type: biochemical
Source text: (A) Sequence network of currently known PETases and a novel esterase metagenomic-derived, RR11O2. […] Grey nodes represent sequences extracted from MGnify and NCBI. Red node represents RR11O2, blue nodes represent known PETases, green and orange nodes represent reported cutinases and esterases showing PET activity, respectively, and light blue nodes represent described polyester degrading enzymes in the literature. To putatively characterise sequence clusters, the identification of PETases, cutinases, esterases and RR11O2 in the network helped to define the potential clusters. The cluster of RR11O2, CI5En2 and PETase are written in grey. (B) PET hydrolases catalyze the depolymerization of poly(ethylene terephthalate) (PET) to bis(2-hydroxyethyl) terephthalate (BHET), mono(2-hydroxyethyl)-terephthalic (MHET) or terephthalic acid (TPA) and ethylene glycol (EG). During characterizations via high-performance liquid chromatography (HPLC) MHET and TPA have been identified as main products. […] Absorbance at 250 nm was monitored.
(A) Enrichment of variants with higher activity compared to wildtype after sorting the ep-PCR library of CI5En2. […] Amount of the released monomers TPA and MHET was determined via HPLC and corresponding standard curves for TPA and MHET. […]
HPLC analysis of the products released after one week incubation at 30° C. using 6 μM pExp-bla-CI5En2-WT. Absorbance at 250 nm was monitored which detects released TPA and MHET.
To detect the release of TPA, MHET and BHET in the presence of various enzymes, aliquots were taken from reaction mixtures, turnover was stopped by addition of an equal volume of methanol containing 0.5% formic acid, centrifuged (16,100×g, 15 min) and analysed by HPLC (1260 Infinity II, Agilent; Nucleodur C18 analytical EC standard column (5 μm, 4×125 mm, Macherey-Nagel, Germany). As the mobile phase mixtures of buffer A (0.1% formic acid in distilled water) and buffer C (distilled water), as well as buffer D (acetonitrile) were used at a flow rate of 1 mL/min. Buffer A was kept at 20% for the whole run. […]

[2] = Light scattering of microdroplets with enzyme and PET nanoparticles; type: biochemical; conditions: 600 nM enzyme co-encapsulated with PET nanoparticles, versus buffer control
Method: (A) As described in FIG. 1, for the screening of metagenomic libraries for esterase activity isolated environmental DNA (eDNA) was cloned into plasmids. After the transformation of bacterial cells, single ones were co-encapsulated in microdroplets with lysis agent and the fluorescein dihexanoate substrate. After an off-chip incubation, the droplets were reinjected into the FADS sorting device and positive hits selected. After DNA recovery the re-screening and sequencing lead to a novel esterase showing promiscuous activity on PET. This enzyme was used to generate a sequence network together with known PETases. CI5En2 was identified in of the clusters as a novel PET hydrolase. This enzyme was subjected to a directed evolution campaign. Single bacterial cells were encapsulated in microdroplets together with lysis agent and PET nanoparticles serving as the substrate of the assay. Droplets were incubated in droplet chambers and reinjected into the sorting module. The SADS module relies on fiber optics integrated into a chip at a 90° angle. Schematic picture showing the main principle of the assay. […] The dielectrophoretic sorting of “positive” droplets is triggered when the measured value is within a user-defined threshold. (C) Histogram of the detected light scattering for co-encapsulated CI5En2 (600 nM) or a buffer control and PET nanoparticles. […]

detected light scattering signal of droplets [2]: decreases over time
B1: CI5En2: novel PET hydrolase identified from a sequence network cluster; amino acid SEQ ID NO. 2 (protein)
chain: MADYAKGPAPTVALLTAPAGPYQTATYKIAAADAKAFNYGGATVHYPVAKAPGETFGVVVMVPGFLAFQAVYDWLVSRVASHGFVVVNMDTVGRGDYPDERAEQAAGALRHVVSLAQAGTAPYAPVADTSRRAVMGNSMGGGASLSAAVVDPTLKAVVALQPWHTTKSFTGVASPTLVVACEKDSIAPNKSHSDVFYNSLSAALPRAEIEMRGAGHLCATFLATAAQKTTMAKSSVAWLKRFLDNDMRYDAMVKGGIDQGEFSRFVV
modifications: C15EN2
activity against PET nanoparticles with different crystallinity ([1]; amorphous and crystalline PET NPs): showed activity
PET degrading activity compared with IsPETase and LCC ([1]; at 30° C.): activity comparable to IsPETase and higher than LCC
